Measurements published in US20230139700A1.

Legend:
[1] = target: human OX40 on cells (human) (UniProt P43489); experiment: flow cytometry on human PBMCs activated with anti-CD3/CD28 beads, 50 nM antibody
[2] = target: human OX40 on cells (human) (UniProt P43489); experiment: cell-based or functional assay

Chain of human OX40 on cells (human) (P43489 29-277): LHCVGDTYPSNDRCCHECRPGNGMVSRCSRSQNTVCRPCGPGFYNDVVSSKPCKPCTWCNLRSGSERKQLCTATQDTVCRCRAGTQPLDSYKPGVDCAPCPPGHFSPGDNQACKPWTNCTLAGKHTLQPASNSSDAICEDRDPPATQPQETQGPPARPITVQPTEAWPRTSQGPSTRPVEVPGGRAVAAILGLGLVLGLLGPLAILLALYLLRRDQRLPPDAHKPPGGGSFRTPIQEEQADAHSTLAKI

| Binding percentage % [1] [%] | MFI (ten thousand) [1] | Luciferase IFM, Jurkat-hOX40-NFκB-2 cells [2] | Substance |
| --- | --- | --- | --- |
| 23 | 7000 | – | IgG1 (antibody) |
| – | – | 59000 | OX40L (ligand) |
